Experimental data from patent US20150064134A1.

How the values were obtained:
Test in all cases: cell-based or functional assay
ARK5(h) (human) = molecular target: T1, ARK5(h) (human) (UniProt O60285)
T1 sequence (looked up): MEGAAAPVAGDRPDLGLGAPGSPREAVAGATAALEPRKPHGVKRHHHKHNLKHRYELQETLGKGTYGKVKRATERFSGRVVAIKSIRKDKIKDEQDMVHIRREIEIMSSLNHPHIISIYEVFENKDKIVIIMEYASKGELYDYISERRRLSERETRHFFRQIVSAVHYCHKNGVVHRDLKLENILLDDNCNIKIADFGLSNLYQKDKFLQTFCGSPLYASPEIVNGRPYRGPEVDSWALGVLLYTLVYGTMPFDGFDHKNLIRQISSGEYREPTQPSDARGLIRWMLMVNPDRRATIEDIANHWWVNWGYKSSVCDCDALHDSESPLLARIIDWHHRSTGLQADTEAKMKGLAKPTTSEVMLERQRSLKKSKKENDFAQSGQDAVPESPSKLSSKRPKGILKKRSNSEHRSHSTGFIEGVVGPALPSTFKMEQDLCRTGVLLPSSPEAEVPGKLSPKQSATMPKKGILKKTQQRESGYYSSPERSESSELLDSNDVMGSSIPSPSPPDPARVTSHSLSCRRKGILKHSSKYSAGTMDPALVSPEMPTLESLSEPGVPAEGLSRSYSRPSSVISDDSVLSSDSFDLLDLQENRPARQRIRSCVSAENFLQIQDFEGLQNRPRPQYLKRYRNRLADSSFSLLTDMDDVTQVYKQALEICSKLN

TrkA(h) (human) = TrkA(h) (human) (UniProt P04629)
Lck(h) activated (human) = Lck(h) activated (human) (UniProt P06239)
Met(D1246N)(h) (human) = Met(D1246N)(h) (human) (UniProt P08581)
IKKα(h) (human) = molecular target: T2, IKKα(h) (human) (UniProt O15111)
T2 sequence (looked up): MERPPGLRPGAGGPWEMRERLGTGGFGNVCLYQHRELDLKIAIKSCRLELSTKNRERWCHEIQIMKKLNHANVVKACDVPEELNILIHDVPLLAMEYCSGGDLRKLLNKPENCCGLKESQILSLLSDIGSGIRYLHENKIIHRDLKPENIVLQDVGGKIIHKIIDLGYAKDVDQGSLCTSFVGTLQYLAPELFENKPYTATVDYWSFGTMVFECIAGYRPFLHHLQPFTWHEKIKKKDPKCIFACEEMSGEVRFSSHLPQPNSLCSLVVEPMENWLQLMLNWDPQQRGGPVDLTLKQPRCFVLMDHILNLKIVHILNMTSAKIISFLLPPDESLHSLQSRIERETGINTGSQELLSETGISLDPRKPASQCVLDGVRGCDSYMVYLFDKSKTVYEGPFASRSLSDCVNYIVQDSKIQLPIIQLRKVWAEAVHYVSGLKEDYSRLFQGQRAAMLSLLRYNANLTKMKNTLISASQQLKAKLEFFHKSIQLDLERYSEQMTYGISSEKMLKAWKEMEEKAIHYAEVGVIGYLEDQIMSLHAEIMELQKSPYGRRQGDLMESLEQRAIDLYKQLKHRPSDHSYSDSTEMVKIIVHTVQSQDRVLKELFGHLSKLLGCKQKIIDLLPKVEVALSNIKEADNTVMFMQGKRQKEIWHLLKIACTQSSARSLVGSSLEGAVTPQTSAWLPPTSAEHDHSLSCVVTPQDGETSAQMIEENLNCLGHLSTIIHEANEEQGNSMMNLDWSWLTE

NEK2(h) (human) = molecular target: T3, NEK2(h) (human) (UniProt P51955)
T3 sequence (looked up): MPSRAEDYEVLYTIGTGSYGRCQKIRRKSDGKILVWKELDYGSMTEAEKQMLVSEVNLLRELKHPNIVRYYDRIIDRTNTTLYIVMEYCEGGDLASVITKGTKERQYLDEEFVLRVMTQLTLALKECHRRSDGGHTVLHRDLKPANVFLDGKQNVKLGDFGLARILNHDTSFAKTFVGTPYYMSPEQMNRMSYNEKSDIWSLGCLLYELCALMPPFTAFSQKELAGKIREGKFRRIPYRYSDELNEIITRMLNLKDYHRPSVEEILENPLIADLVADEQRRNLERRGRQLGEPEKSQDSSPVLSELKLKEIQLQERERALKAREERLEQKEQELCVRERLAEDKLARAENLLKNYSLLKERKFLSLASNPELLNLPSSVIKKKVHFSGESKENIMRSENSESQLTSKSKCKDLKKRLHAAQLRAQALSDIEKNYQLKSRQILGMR

PKCβI(h) (human) = PKCβI(h) (human) (UniProt P05771)
[1] = molecular target: IGF-1R(h), activated (human) (UniProt P08069)
IGF-1R(h), activated (human), sequence (P08069 959-1367 limits assumed): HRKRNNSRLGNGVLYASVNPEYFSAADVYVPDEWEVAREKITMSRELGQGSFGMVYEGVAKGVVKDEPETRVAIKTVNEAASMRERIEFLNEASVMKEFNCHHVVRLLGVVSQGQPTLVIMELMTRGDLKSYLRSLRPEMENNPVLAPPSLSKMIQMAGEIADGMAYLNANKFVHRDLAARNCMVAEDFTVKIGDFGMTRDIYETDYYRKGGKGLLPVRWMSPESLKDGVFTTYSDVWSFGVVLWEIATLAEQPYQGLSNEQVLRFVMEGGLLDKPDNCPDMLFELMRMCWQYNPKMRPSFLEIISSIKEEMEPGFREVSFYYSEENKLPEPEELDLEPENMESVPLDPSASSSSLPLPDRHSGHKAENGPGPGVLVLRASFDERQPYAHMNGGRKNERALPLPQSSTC

CaMKIIγ(h) (human) = CaMKIIγ(h) (human) (UniProt Q13555)
CaMKIIγ(h) (human), sequence (Q13555 whole entry): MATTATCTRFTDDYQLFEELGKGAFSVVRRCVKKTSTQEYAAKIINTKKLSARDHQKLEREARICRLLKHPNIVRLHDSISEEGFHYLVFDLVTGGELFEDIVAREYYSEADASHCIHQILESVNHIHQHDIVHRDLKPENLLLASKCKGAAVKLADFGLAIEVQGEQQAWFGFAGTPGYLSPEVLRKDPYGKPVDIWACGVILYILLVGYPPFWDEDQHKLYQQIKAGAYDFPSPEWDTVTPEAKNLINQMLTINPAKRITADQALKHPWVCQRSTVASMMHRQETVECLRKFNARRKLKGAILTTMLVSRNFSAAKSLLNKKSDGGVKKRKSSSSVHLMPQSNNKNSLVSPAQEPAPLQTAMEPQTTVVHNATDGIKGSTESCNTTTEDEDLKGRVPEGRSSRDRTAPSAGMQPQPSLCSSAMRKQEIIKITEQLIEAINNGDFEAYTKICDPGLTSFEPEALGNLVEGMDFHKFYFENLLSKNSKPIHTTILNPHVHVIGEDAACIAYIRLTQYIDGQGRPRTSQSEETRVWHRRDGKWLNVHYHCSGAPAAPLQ

GRK6(h) (human) = GRK6(h) (human) (UniProt P43250)
HIPK1(h) (human) = HIPK1(h) (human) (UniProt Q86Z02)
TAO3(h) (human) = molecular target: T4, TAO3(h) (human) (UniProt Q9H2K8)
T4 sequence (looked up): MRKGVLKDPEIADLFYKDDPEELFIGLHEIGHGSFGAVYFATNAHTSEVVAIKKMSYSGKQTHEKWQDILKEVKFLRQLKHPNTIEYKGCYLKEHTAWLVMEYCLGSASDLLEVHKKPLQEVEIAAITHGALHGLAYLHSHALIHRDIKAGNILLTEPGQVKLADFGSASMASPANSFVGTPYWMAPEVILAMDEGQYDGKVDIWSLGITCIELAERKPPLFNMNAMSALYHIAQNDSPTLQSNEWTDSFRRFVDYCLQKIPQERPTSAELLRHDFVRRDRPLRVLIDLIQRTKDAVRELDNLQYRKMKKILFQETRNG

% activity at 100 µM (ARK5(h) (human)) | % activity at 100 µM (TrkA(h) (human)) | % activity at 100 µM (Lck(h) activated (human)) | % activity at 100 µM (Met(D1246N)(h) (human)) | % activity at 100 µM (IKKα(h) (human)) | % activity at 100 µM (NEK2(h) (human)) | % activity at 100 µM (PKCβI(h) (human)) | % activity at 100 µM [1] | % activity at 100 µM (CaMKIIγ(h) (human)) | % activity at 100 µM (GRK6(h) (human)) | % activity at 100 µM (HIPK1(h) (human)) | % activity at 100 µM (TAO3(h) (human)) | Substance
78% | 25% | 243% | 82% | 93% | 78% | 78% | 80% | 5% | 147% | 74% | 77% | MMI-0300 (peptide)
69% | 17% | 216% | 31% | 87% | 61% | 78% | 77% | 3% | 141% | 91% | 67% | MMI-0400 (peptide)
20% | 24% | 76% | 90% | 50% | 0% | 1% | 45% | 3% | 174% | 47% | 12% | MMI-0500 (peptide)
